Here are results for one substance from publication PMC12483538.

The assay has as its target SenDRT9 reverse transcriptase (SenRT), affinity tag cleaved, in complex with its ncRNA (Salmonella enterica). Kind of assay: cryo-EM structure; 2.5 uM tag-cleaved DRT9 RT-ncRNA complex (hexamer) on Quantifoil grids; D3 symmetry imposed, 2.59 A.

By stoichiometry N is commonly meant the number of molecules, sites or subunits per partner or assembly. “SenDRT9 reverse transcriptase (SenRT), affinity tag cleaved, in complex with its ncRNA (enzyme)” returned a stoichiometry N of 6.
